From patent US20250034239A1 (LINNO PHARMACEUTICALS, published 2025)

How the values were obtained:
[1] = target: T1, human transferrin (Sigma T3309) (human, UniProt P02787 20-698); assay: flow cytometry on HEK293F-hTfR1 cells with human transferrin, pH 6.0
T1 construct: mature; same polypeptide; also called native human transferrin; hTf
Description: (§1) HEK293F-hTfR1 cells were prepared by transfecting hTfR1-expressing plasmid, with a GFP tag, into HEK293F cells. Stable pool was used for this assay. Briefly, the engineered HEK293F cells expressing hTfR1 were cultured with OPM-293 CD05 medium at 37° C., with 8% CO₂ and saturated humidity in cell shaker. […] The cells were washed twice by centrifugation at 300 g for 5 min at 4° C., before rabbit anti-OVA antibodies and a secondary anti-rabbit IgG-AF647 (all prepared in blocking buffer). The cells were scanned with CytoFLEX (Beckman).

[2] = target: T1, human transferrin (Sigma T3309); assay: flow cytometry on HEK293F-hTfR1 cells with human transferrin, pH 7.4
Description: as §1

human properdin = target: T2, human properdin (human, UniProt P27918 28-469, biotinylated); assay: ELISA on biotinylated truncated variants of human properdin, VHH-Fc at 10 µg/ml
T2 construct: Recombinant, made in house; tag not described; In the hemolysis assays the target is the properdin of human serum; also called human properdin-biotin; biotin human Properdin
T2 sequence (P27918 28-469 limits assumed): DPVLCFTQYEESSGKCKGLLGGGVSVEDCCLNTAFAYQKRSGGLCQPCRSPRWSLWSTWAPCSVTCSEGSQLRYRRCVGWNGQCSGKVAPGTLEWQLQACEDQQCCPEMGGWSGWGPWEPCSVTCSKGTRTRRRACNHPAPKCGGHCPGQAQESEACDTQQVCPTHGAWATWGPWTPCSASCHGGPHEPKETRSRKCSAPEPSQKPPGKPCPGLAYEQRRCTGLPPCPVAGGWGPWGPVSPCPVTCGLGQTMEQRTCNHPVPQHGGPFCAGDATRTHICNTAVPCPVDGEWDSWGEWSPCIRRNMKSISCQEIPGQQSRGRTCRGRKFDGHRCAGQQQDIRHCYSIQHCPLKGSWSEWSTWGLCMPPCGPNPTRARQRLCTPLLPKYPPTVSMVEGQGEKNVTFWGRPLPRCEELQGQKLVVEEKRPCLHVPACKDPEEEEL
Description: 96-well immunoplates were coated with 100 μl/well 1 μg/ml streptavidin and incubate at 4° C. overnight. Wells were washed with PBST for 3 times and blocked with 200 μl of 1% BSA/PBS at RT for 1 h. […] Plates were washed with PBST for 3 times, 100 μl/well 10 μg/ml VHH-Fcs were added and incubate at RT for 1 h. Plates were washed with PBST for 3 times and add 100 μl goat anti-human Fc-HRP (Sigma, A0170) diluted 1/5000 in 1% BSA/PBST to each well and incubate at RT for 1 h. Plates were then washed as before and add 100 μl TMB substrate and incubate at RT for 15 min. 100 μl per well stop solution was added to stop the reaction, and the plates were read with microplate reader at 450 nm.

[3] = target: T1, human transferrin (Sigma T3309); assay: flow cytometry on HEK293F-hTfR1 cells with human transferrin, pH 6.0; grade by % binding (10% > + ≥ 5%); non-specific binding column also +
Description: as §1

[4] = target: T1, human transferrin (Sigma T3309); assay: flow cytometry on HEK293F-hTfR1 cells with human transferrin, pH 7.4; grade by % binding (10% > + ≥ 5%)
Description: as §1

[5] = target: T1, human transferrin (Sigma T3309); assay: flow cytometry on HEK293F-hTfR1 cells with human transferrin, pH 7.4; grade by % binding (+++ ≥ 15%)
Description: as §1

[6] = target: T3, human transferrin receptor 1 on HEK293F-hTfR1 cells (human, UniProt P02786 1-760); assay: flow cytometry on HEK293F-hTfR1 cells with or without transferrin
T3 construct: whole, on cells
T3 sequence (P02786 whole entry): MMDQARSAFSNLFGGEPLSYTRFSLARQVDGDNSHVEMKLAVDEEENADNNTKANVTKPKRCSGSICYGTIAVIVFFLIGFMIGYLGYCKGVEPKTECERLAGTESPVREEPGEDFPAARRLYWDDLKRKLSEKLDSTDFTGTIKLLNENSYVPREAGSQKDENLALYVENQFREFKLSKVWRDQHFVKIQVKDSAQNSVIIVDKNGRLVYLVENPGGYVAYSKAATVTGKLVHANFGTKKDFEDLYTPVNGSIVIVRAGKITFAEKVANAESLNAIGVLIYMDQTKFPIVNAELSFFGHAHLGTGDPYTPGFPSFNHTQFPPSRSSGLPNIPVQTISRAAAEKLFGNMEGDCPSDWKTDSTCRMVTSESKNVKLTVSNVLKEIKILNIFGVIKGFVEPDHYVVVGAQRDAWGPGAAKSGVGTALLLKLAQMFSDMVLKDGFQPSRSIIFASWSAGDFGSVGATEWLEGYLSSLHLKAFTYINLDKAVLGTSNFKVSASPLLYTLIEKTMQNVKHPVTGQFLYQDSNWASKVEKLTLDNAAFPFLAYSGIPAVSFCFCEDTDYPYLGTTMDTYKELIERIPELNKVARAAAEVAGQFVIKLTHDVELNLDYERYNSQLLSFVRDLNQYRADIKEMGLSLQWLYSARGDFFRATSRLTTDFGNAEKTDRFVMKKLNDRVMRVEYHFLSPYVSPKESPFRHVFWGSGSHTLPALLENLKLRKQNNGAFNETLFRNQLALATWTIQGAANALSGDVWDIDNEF
Description: as §1

T1 sequence (P02787 20-698): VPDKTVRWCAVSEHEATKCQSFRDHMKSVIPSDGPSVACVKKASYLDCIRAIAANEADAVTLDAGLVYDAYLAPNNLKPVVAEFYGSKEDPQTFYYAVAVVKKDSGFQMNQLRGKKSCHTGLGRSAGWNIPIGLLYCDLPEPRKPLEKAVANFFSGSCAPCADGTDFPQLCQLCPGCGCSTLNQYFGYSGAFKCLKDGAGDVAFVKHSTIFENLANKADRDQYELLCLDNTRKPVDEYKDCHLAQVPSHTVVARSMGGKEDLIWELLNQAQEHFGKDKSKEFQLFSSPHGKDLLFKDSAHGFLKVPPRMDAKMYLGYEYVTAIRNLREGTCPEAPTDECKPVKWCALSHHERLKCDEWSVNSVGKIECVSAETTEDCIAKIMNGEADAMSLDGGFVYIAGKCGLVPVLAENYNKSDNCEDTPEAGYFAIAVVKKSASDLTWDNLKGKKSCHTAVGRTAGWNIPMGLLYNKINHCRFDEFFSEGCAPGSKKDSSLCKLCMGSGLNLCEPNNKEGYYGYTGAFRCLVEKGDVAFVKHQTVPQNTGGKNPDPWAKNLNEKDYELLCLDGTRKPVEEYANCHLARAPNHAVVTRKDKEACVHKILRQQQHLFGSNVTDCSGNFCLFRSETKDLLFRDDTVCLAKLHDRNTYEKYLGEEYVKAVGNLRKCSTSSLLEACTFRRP

Row | Binder | percent binding (flow cytometry, VHH/Tf on hTfR1-overexpressing cells, pH 6.0) [1] [%] | percent binding (flow cytometry, VHH/Tf on hTfR1-overexpressing cells, pH 7.4) [2] [%] | binding result (human properdin) | percent binding (flow cytometry, VHH/Tf on hTfR1-overexpressing cells, pH 6.0) [3] [%] | further results
1 | SLN0066 VHH-OVA-His (negative control VHH) (VHH, not shown: His tag) HVQLVESGGGSVQAGGSLRLSCVASGIGHGFNNNCMGWFRQAPGKEREGVAAVYTGGGTPYYADSVKGRFTLSQDNAKNTLYLQMNGLDPEDTAMYYCVADIWRTYRCGAGDTTVFDYRGQGTLVTVSSGSIGAASMEFCFDVFKELKVHHANENIFYCPIAIMSALAMVYLGAKDSTRTQINKVVRFDKLPGFGDSIEAQCGTSVNVHSSLRDILNQITKPNDVYSFSLASRLYAEERYPILPEYLQCVKELYRGGLEPINFQTAADQARELINSWVESQTNGIIRNVLQPSSVDSQTAMVLVNAIVFKGLWEKAFKDEDTQAMPFRVTEQESKPVQMMYQIGLFRVASMASEKMKILELPFASGTMSMLVLLPDEVSGLEQLESIINFEKLTEWTSSNVMEERKIKVYLPRMKMEEKYNLTSVLMAMGITDVFSSSANLSGISSAESLKISQAVHAAHAEINEAGREVVGSAEAGVDAASVSEEFRADHPFLFCIKHIATNAVLFFGRCVSP | < 5 | < 5 |  |  | 
2 | SLN12075 VHH-Fc (Fc fusion, not shown: its position and linker are not fixed for the humanized single VHH) VHH: EVQLVESGGGLVQPGGSLRLSCAASAYIYSSYCMGWFRQAPGKGLERVSVINSDGRTSYADSVKGRFTISRDNSKNTLYLQMNSLRAEDTAVYYCAAVILPPTDGMEYSCNYPAAEYNYWGQGTLVTVSS |  |  | binds |  | 
3 | SLN12083 VHH-Fc (Fc fusion, not shown: its position and linker are not fixed for the humanized single VHH) VHH: EVQLVESGGGLVQPGGSLRLSCAASEYTSSSYCMAWIRQAPGKGLEGVAAIDTDGSTSYTDSVKGRFTISRDNSKNTLYLQMNSLRAEDTAVYYCAAAPWLLAYGDYCVTRPDFGEWGQGTLVTVSS |  |  | binds |  | 
4 | SLN0057 VHH-OVA-His (VHH, Tested as recombinant VHH-OVA-His; not shown: His tag) HVQLVESGGGSVQAGGSLRLSCAASGHTYSIYYMAWFRQAPGKEREGVAVIYRGGSTTYADSAKGRFTVSQDNGKNTVYLQMNSLKAEDTAMYYCAAAHVLHVSSLLPGGYPYWGQGTLVTVSSGSIGAASMEFCFDVFKELKVHHANENIFYCPIAIMSALAMVYLGAKDSTRTQINKVVRFDKLPGFGDSIEAQCGTSVNVHSSLRDILNQITKPNDVYSFSLASRLYAEERYPILPEYLQCVKELYRGGLEPINFQTAADQARELINSWVESQTNGIIRNVLQPSSVDSQTAMVLVNAIVFKGLWEKAFKDEDTQAMPFRVTEQESKPVQMMYQIGLFRVASMASEKMKILELPFASGTMSMLVLLPDEVSGLEQLESIINFEKLTEWTSSNVMEERKIKVYLPRMKMEEKYNLTSVLMAMGITDVFSSSANLSGISSAESLKISQAVHAAHAEINEAGREVVGSAEAGVDAASVSEEFRADHPFLFCIKHIATNAVLFFGRCVSP |  | < 5 |  | 5 to 10 | 
5 | SLN0062 VHH-OVA-His (VHH, Tested as recombinant VHH-OVA-His; not shown: His tag) QVQLVESGGGSVQSGGSLRLSCAASGYTFSRNCMGWFRQTPGKERERVATVYPGGGSTYYADSVKGRFTFSQDNAKNAIYLQMNTLKPEDTGMYYCAASRRIWSCGSGAGSYDYWGQGTQVTVSSGSIGAASMEFCFDVFKELKVHHANENIFYCPIAIMSALAMVYLGAKDSTRTQINKVVRFDKLPGFGDSIEAQCGTSVNVHSSLRDILNQITKPNDVYSFSLASRLYAEERYPILPEYLQCVKELYRGGLEPINFQTAADQARELINSWVESQTNGIIRNVLQPSSVDSQTAMVLVNAIVFKGLWEKAFKDEDTQAMPFRVTEQESKPVQMMYQIGLFRVASMASEKMKILELPFASGTMSMLVLLPDEVSGLEQLESIINFEKLTEWTSSNVMEERKIKVYLPRMKMEEKYNLTSVLMAMGITDVFSSSANLSGISSAESLKISQAVHAAHAEINEAGREVVGSAEAGVDAASVSEEFRADHPFLFCIKHIATNAVLFFGRCVSP |  |  |  | 5 to 10 | percent binding (flow cytometry, VHH/Tf on hTfR1-overexpressing cells, pH 7.4) [4]: 5 to 10%
6 | SLN0042 VHH-OVA-His (VHH, Tested as recombinant VHH-OVA-His; not shown: His tag) DVQLVESGGGSVQAGGSLRLSCAASGYTRSFTCMGWFRQAPGKEREGVATINPGTGSTYYADSVKGRFSISQDNAKNTVYLQMNTLKPEDTAMYYCAATQLFGCGSLAKSLFGYWGQGTLVTVSSGSIGAASMEFCFDVFKELKVHHANENIFYCPIAIMSALAMVYLGAKDSTRTQINKVVRFDKLPGFGDSIEAQCGTSVNVHSSLRDILNQITKPNDVYSFSLASRLYAEERYPILPEYLQCVKELYRGGLEPINFQTAADQARELINSWVESQTNGIIRNVLQPSSVDSQTAMVLVNAIVFKGLWEKAFKDEDTQAMPFRVTEQESKPVQMMYQIGLFRVASMASEKMKILELPFASGTMSMLVLLPDEVSGLEQLESIINFEKLTEWTSSNVMEERKIKVYLPRMKMEEKYNLTSVLMAMGITDVFSSSANLSGISSAESLKISQAVHAAHAEINEAGREVVGSAEAGVDAASVSEEFRADHPFLFCIKHIATNAVLFFGRCVSP | < 5 |  |  |  | percent binding (flow cytometry, VHH/Tf on hTfR1-overexpressing cells, pH 7.4) [5]: ≥ 15%; binding result [6]: no binding (tested: 10 µg/mL)
7 | SLN0059 VHH-OVA-His (VHH, Tested as recombinant VHH-OVA-His; not shown: His tag) HVQLVESGGGSVQSGGSLRLSCAASGITISNYYMTWFRQAPGKEREGVAGLTRADVTLYADSVKGRFTISRDNAKNTLYLQMNSLKPEDTAMYYCAAADRFRVGLREADFSAWGQGTQVTVSSGSIGAASMEFCFDVFKELKVHHANENIFYCPIAIMSALAMVYLGAKDSTRTQINKVVRFDKLPGFGDSIEAQCGTSVNVHSSLRDILNQITKPNDVYSFSLASRLYAEERYPILPEYLQCVKELYRGGLEPINFQTAADQARELINSWVESQTNGIIRNVLQPSSVDSQTAMVLVNAIVFKGLWEKAFKDEDTQAMPFRVTEQESKPVQMMYQIGLFRVASMASEKMKILELPFASGTMSMLVLLPDEVSGLEQLESIINFEKLTEWTSSNVMEERKIKVYLPRMKMEEKYNLTSVLMAMGITDVFSSSANLSGISSAESLKISQAVHAAHAEINEAGREVVGSAEAGVDAASVSEEFRADHPFLFCIKHIATNAVLFFGRCVSP |  | < 5 |  | 5 to 10 | 
8 | SLN0064 VHH-OVA-His (VHH, Tested as recombinant VHH-OVA-His; not shown: His tag) HVQLVESGGGSVQAGGSLRLSCAASGYSVSWFCMGWFRQAPGLEREGVAVIDVDSIARYGDSVKGRFTISQGNSKDTVYLQMNGLKPEDTAMYYCAAKTERQCRWNWMDWRTYDYPHWGQGTQVTVSSGSIGAASMEFCFDVFKELKVHHANENIFYCPIAIMSALAMVYLGAKDSTRTQINKVVRFDKLPGFGDSIEAQCGTSVNVHSSLRDILNQITKPNDVYSFSLASRLYAEERYPILPEYLQCVKELYRGGLEPINFQTAADQARELINSWVESQTNGIIRNVLQPSSVDSQTAMVLVNAIVFKGLWEKAFKDEDTQAMPFRVTEQESKPVQMMYQIGLFRVASMASEKMKILELPFASGTMSMLVLLPDEVSGLEQLESIINFEKLTEWTSSNVMEERKIKVYLPRMKMEEKYNLTSVLMAMGITDVFSSSANLSGISSAESLKISQAVHAAHAEINEAGREVVGSAEAGVDAASVSEEFRADHPFLFCIKHIATNAVLFFGRCVSP |  |  |  | 5 to 10 | percent binding (flow cytometry, VHH/Tf on hTfR1-overexpressing cells, pH 7.4) [4]: 5 to 10%
9 | SLN12068 VHH-Fc (Fc fusion, not shown: its position and linker are not fixed for the humanized single VHH) VHH: EVQLVESGGGLVQPGGSLRLSCAAFEYYYCMGWFRQAPGKGLEGVASFDTSDGSKYYADSVKGRFTISKDNSKNTLYLQMNSLRAEDTAVYYCAARPFYVGGTCLPRLTDFSIWGQGTLVTVSS |  |  | binds |  | 
10 | SLN0043 VHH-OVA-His (VHH, Tested as recombinant VHH-OVA-His; not shown: His tag) DVQLVESGGGSVQAGGSLRLSCAASGVTWSRDWMAWFRQAPGKEREGVAAFVPSIGSTFYVDSVKGRFTISQDNAKNTLFLQMNSLKPEDTAMYYCATDPLWGRKYGGSWSDPSEYNYWGQGTQVTVSSGSIGAASMEFCFDVFKELKVHHANENIFYCPIAIMSALAMVYLGAKDSTRTQINKVVRFDKLPGFGDSIEAQCGTSVNVHSSLRDILNQITKPNDVYSFSLASRLYAEERYPILPEYLQCVKELYRGGLEPINFQTAADQARELINSWVESQTNGIIRNVLQPSSVDSQTAMVLVNAIVFKGLWEKAFKDEDTQAMPFRVTEQESKPVQMMYQIGLFRVASMASEKMKILELPFASGTMSMLVLLPDEVSGLEQLESIINFEKLTEWTSSNVMEERKIKVYLPRMKMEEKYNLTSVLMAMGITDVFSSSANLSGISSAESLKISQAVHAAHAEINEAGREVVGSAEAGVDAASVSEEFRADHPFLFCIKHIATNAVLFFGRCVSP | < 5 |  |  |  | binding result [6]: no binding (tested: 10 µg/mL)
